Publication PMC9601244

Biological target: NGAL (neutrophil gelatinase-associated lipocalin) (UniProt P80188 24-198, C107S)
Experiment: dipstick lateral-flow sandwich assay

NGAL (neutrophil gelatinase-associated lipocalin), sequence (P80188 24-198 C107S): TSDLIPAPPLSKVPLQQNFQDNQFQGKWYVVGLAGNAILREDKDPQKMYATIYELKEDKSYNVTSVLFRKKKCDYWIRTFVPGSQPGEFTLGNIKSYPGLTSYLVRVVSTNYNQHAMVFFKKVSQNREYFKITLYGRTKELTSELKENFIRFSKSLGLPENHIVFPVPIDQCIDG

Question: Does ATGGCGGAGCTGGATAGTATAGTCGG (ssDNA) [NGAL truncated aptamer, biotinylated (26-base)] bind?
Answer: binds
